Tested on: VEGFD
Assay: qRT-PCR analysis of VEGFD expression in hippocampal neurons
Type: cell-based, mice
Settings: hippocampal neurons infected with rAAV
Description: Total RNA was isolated at DIV10 to DIV13 from hippocampal primary neuron cultures or isolated brain tissues with Rneasy Mini Kit (Qiagen, Hilden, Germany) including an optional Dnase I treatment at room temperature for 15 min according to manufacturer's instructions (Qiagen). 1.2 μg of extracted RNA was reverse transcribed into first strand cDNA using High Capacity cDNA Reverse Transcription kit (Applied Biosystems, Foster City, Calif.).
Quantitative reverse transcriptase PCR (qRT-PCR) was done on an ABI7300 thermal cycler using Universal qRT-PCR master mix with TaqMan Gene Expression Assays for the indicated genes (Applied Biosystems). The following TaqMan Gene Expression Assays were used in this study: Gusb (Mm00446953_m1), cFos (Mm00487425_m1), VEGFD (Mm00438965_m1), VEGFC (Mm01202432_m1), VEGF (Mm01281449_m1), VEGFR3 (Mm01292618_m1), beta-actin (Mm00607939_s1), beta-2 microglobulin (Mm00437762_m1), CBP (Mm01342435_m1), p38 MAPK alpha (Mm00442497_m1), p38 MAPK beta (Mm00440955_m1). Expression of target genes was normalized against the expression of Gusb as endogenous control gene. Data were derived from at least 5 independent experiments.

B1: CaMKIVK75E: dominant negative mutant of CaMKIV (protein, UniProt P08414 1-469, looked up, variant K75E)
Calcium/calmodulin-dependent …: MLKVTVPSCPSSPCSSVTASTENLVPDYWIDGSNRDPLGDFFEVESELGRGATSIVYRCKQKGTQKPYALKVLKETVDKKIVRTEIGVLLRLSHPNIIKLKEIFETPTEISLVLELVTGGELFDRIVEKGYYSERDARDAVKQILEAVAYLHENGIVHRDLKPENLLYATPAPDAPLKIADFGLSKIVEHQVLMKTVCGTPGYCAPEILRGCAYGPEVDMWSVGIITYILLCGFEPFYDERGDQFMFRRILNCEYYFISPWWDEVSLNAKDLVKKLIVLDPKKRLTTFQALQHPWVTGKAANFVHMDTAQKKLQEFNARRKLKAAVKAVVASSRLGSASSSHTSIQENHKASSDPPSTQDAKDSTDLLGKKMQEEDQEEDQVEAEASADEMRKLQSEEVEKDAGVKEEETSSMVPQDPEDELETDDPEMKRDSEEKLKSVEEEMDPMTEEEAPDAGLGVPQQDAIQPEY
  VEGFD mRNA levels: significantly lower

Reference: patent US20120308554A1, “VEGF-D/VEGFR2/3-MEDIATED REGULATION OF DENDRITES” (UNIVERSITAT HEIDELBERG, priority 2011, published 2012)
